What was measured:
[1] = target: mCh tethered to early endosome [EE]; test: cytosol-to-early-endosome translocation in HeLa cells under light
[2] = target: T1, plasma membrane targeting mCh (mCh-CAAX); test: cytosol-to-plasma-membrane translocation in HeLa cells under light
T1 construct: also called mCh tethered to PM

NE-tethered mCh-lamin A [3] = target: T2, NE-tethered mCh-lamin A (UniProt P02545 1-664); test: nucleoplasmic GFP signal in HeLa cells over dark-light cycles
NE-tethered mCh-lamin A [4] = target: T2, NE-tethered mCh-lamin A; test: NE/NP ratio of GFP signal in HeLa cells, before and after light

T2 sequence (P02545 whole entry): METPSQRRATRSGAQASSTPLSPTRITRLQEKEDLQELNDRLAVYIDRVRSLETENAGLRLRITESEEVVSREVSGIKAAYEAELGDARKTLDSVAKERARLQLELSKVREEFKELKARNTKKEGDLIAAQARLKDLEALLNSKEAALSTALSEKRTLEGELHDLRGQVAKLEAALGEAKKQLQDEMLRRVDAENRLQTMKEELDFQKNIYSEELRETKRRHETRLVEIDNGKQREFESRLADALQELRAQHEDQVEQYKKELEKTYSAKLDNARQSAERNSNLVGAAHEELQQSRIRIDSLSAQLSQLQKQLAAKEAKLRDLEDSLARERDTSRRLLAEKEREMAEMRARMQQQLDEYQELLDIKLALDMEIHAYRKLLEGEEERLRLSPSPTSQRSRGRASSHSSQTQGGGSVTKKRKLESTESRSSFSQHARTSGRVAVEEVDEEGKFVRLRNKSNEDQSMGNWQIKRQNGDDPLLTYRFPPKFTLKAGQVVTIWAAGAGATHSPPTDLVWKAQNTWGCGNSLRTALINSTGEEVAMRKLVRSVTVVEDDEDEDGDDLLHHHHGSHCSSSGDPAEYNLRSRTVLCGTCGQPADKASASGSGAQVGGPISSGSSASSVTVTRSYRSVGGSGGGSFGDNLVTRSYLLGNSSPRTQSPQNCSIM

Binder	fold increase in the signal-to-background ratio against 1x sunbody [1] [fold]	fold increase in the signal-to-background ratio against 1x sunbody [2] [fold]	half-life of light-triggered translocation to the antigen (t½, on) (NE-tethered mCh-lamin A [3]) [s]	light-induced change in the NE/NP ratio (NE-tethered mCh-lamin A [4]) [%]
GFP-2xsunbody (dimeric concatemer of sunbody) (VHH, not shown: large carriers, also called tandem sunbody) LATTLERIEKNFVITDPRLPDNPIIFASDSFLQLTEYSREEILGRNCRFLQGPETDRATVRKIRDAIDNQTEVTVQLINYTKSGKKFWNLFHLQPMRDQKGDVQYFIGVQLDGTEHVRDAAEREGVMLIKKTAENIDEAAKELKLMAQVQLVESGGGLVQAGGSLRLSCAVSGRPFSEYNLGWFRQAPGKEREFVARIRSSGTTVYTDSVKGRFSASRDNALERIEKNFVITDPRLPDNPIIFASDSFLQLTEYSREEILGRNCRFLQGPETDRATVRKIRDAIDNQTEVTVQLINYTKSGKKFWNLFHLQPMRDQKGDVQYFIGVQLDGTEHVRDAAEREGVMLIKKTAENIDEAAKNMGYLQLNSLEPEDTAVYYCAMSRVDTDSPAFYDYWGQGTQVTVSTPRSLATTLERIEKNFVITDPRLPDNPIIFASDSFLQLTEYSREEILGRNCRFLQGPETDRATVRKIRDAIDNQTEVTVQLINYTKSGKKFWNLFHLQPMRDQKGDVQYFIGVQLDGTEHVRDAAEREGVMLIKKTAENIDEAAKELKLMAQVQLVESGGGLVQAGGSLRLSCAVSGRPFSEYNLGWFRQAPGKEREFVARIRSSGTTVYTDSVKGRFSASRDNALERIEKNFVITDPRLPDNPIIFASDSFLQLTEYSREEILGRNCRFLQGPETDRATVRKIRDAIDNQTEVTVQLINYTKSGKKFWNLFHLQPMRDQKGDVQYFIGVQLDGTEHVRDAAEREGVMLIKKTAENIDEAAKNMGYLQLNSLEPEDTAVYYCAMSRVDTDSPAFYDYWGQGTQVTVSTPRS	> 2	> 2		
GFP-sunbody (anti-mCherry nanobody LaM8 with LOV2 at S0 and S3) (VHH, not shown: large carriers, also called S0+S3; anti-mCh GFP-tagged sunbody) LATTLERIEKNFVITDPRLPDNPIIFASDSFLQLTEYSREEILGRNCRFLQGPETDRATVRKIRDAIDNQTEVTVQLINYTKSGKKFWNLFHLQPMRDQKGDVQYFIGVQLDGTEHVRDAAEREGVMLIKKTAENIDEAAKELKLMAQVQLVESGGGLVQAGGSLRLSCAVSGRPFSEYNLGWFRQAPGKEREFVARIRSSGTTVYTDSVKGRFSASRDNALERIEKNFVITDPRLPDNPIIFASDSFLQLTEYSREEILGRNCRFLQGPETDRATVRKIRDAIDNQTEVTVQLINYTKSGKKFWNLFHLQPMRDQKGDVQYFIGVQLDGTEHVRDAAEREGVMLIKKTAENIDEAAKNMGYLQLNSLEPEDTAVYYCAMSRVDTDSPAFYDYWGQGTQVTVSTPRS			2.6	> 80

— US20250122266A1 (TEXAS A AND M UNIVERSITY SYSTEM, published 2025)
